The record followed here is patent US11965039B2, “Compstatin analogues and their medical uses” (priority 2018, dated 2024).

The labels stand for the following.
B1: Compound 18 (peptide)
peptide: Ac-ICIWQDWGRHRCT-NH2
modifications: disulfide 2-12
SMILES: CC[C@H](C)[C@H](NC(C)=O)C(=O)N[C@H]1CSSC[C@@H](C(=O)N[C@H](C(N)=O)[C@@H](C)O)NC(=O)[C@H](CCCNC(=N)N)NC(=O)[C@H](Cc2c[nH]cn2)NC(=O)[C@H](CCCNC(=N)N)NC(=O)CNC(=O)[C@H](Cc2c[nH]c3ccccc23)NC(=O)[C@H](CC(=O)O)NC(=O)[C@H](CCC(N)=O)NC(=O)[C@H](Cc2c[nH]c3ccccc23)NC(=O)[C@H]([C@@H](C)CC)NC1=O
B2: Compound 16 (peptide)
peptide: Ac-ICIWQEWGEHRCT-NH2
modifications: disulfide 2-12
SMILES: CC[C@H](C)[C@H](NC(C)=O)C(=O)N[C@H]1CSSC[C@@H](C(=O)N[C@H](C(N)=O)[C@@H](C)O)NC(=O)[C@H](CCCNC(=N)N)NC(=O)[C@H](Cc2c[nH]cn2)NC(=O)[C@H](CCC(=O)O)NC(=O)CNC(=O)[C@H](Cc2c[nH]c3ccccc23)NC(=O)[C@H](CCC(=O)O)NC(=O)[C@H](CCC(N)=O)NC(=O)[C@H](Cc2c[nH]c3ccccc23)NC(=O)[C@H]([C@@H](C)CC)NC1=O
B3: Compound 26 (peptide)
peptide: Ac-ICIWQDWGEHRCTE-NH2
modifications: disulfide 2-12
SMILES: CC[C@H](C)[C@H](NC(C)=O)C(=O)N[C@H]1CSSC[C@@H](C(=O)N[C@H](C(=O)N[C@@H](CCC(=O)O)C(N)=O)[C@@H](C)O)NC(=O)[C@H](CCCNC(=N)N)NC(=O)[C@H](Cc2c[nH]cn2)NC(=O)[C@H](CCC(=O)O)NC(=O)CNC(=O)[C@H](Cc2c[nH]c3ccccc23)NC(=O)[C@H](CC(=O)O)NC(=O)[C@H](CCC(N)=O)NC(=O)[C@H](Cc2c[nH]c3ccccc23)NC(=O)[C@H]([C@@H](C)CC)NC1=O
B4: Compound 33 (peptide)
peptide: Ac-EICIWQDWGEHRCTE-NH2
modifications: disulfide 3-13
SMILES: CC[C@H](C)[C@@H]1NC(=O)[C@@H](NC(=O)[C@@H](NC(=O)[C@H](CCC(=O)O)NC(C)=O)[C@@H](C)CC)CSSC[C@@H](C(=O)N[C@H](C(=O)N[C@@H](CCC(=O)O)C(N)=O)[C@@H](C)O)NC(=O)[C@H](CCCNC(=N)N)NC(=O)[C@H](Cc2c[nH]cn2)NC(=O)[C@H](CCC(=O)O)NC(=O)CNC(=O)[C@H](Cc2c[nH]c3ccccc23)NC(=O)[C@H](CC(=O)O)NC(=O)[C@H](CCC(N)=O)NC(=O)[C@H](Cc2c[nH]c3ccccc23)NC1=O
B5: Compound 14 (peptide)
peptide: Ac-ESSAICIWQDWGEHRCTGAES-NH2
modifications: disulfide 6-16
SMILES: CC[C@H](C)[C@H](NC(=O)[C@H](C)NC(=O)[C@H](CO)NC(=O)[C@H](CO)NC(=O)[C@H](CCC(=O)O)NC(C)=O)C(=O)N[C@H]1CSSC[C@@H](C(=O)N[C@H](C(=O)NCC(=O)N[C@@H](C)C(=O)N[C@@H](CCC(=O)O)C(=O)N[C@@H](CO)C(N)=O)[C@@H](C)O)NC(=O)[C@H](CCCNC(=N)N)NC(=O)[C@H](Cc2c[nH]cn2)NC(=O)[C@H](CCC(=O)O)NC(=O)CNC(=O)[C@H](Cc2c[nH]c3ccccc23)NC(=O)[C@H](CC(=O)O)NC(=O)[C@H](CCC(N)=O)NC(=O)[C@H](Cc2c[nH]c3ccccc23)NC(=O)[C@H]([C@@H](C)CC)NC1=O
B6: Compound 12 (peptide)
peptide: Ac-ICIWQDWGAHRCE-NH2
modifications: disulfide 2-12
SMILES: CC[C@H](C)[C@H](NC(C)=O)C(=O)N[C@H]1CSSC[C@@H](C(=O)N[C@@H](CCC(=O)O)C(N)=O)NC(=O)[C@H](CCCNC(=N)N)NC(=O)[C@H](Cc2c[nH]cn2)NC(=O)[C@H](C)NC(=O)CNC(=O)[C@H](Cc2c[nH]c3ccccc23)NC(=O)[C@H](CC(=O)O)NC(=O)[C@H](CCC(N)=O)NC(=O)[C@H](Cc2c[nH]c3ccccc23)NC(=O)[C@H]([C@@H](C)CC)NC1=O
B7: Compound 34 (peptide)
peptide: Ac-EICIWQDWGEHRCTEGE-NH2
modifications: disulfide 3-13
SMILES: CC[C@H](C)[C@@H]1NC(=O)[C@@H](NC(=O)[C@@H](NC(=O)[C@H](CCC(=O)O)NC(C)=O)[C@@H](C)CC)CSSC[C@@H](C(=O)N[C@H](C(=O)N[C@@H](CCC(=O)O)C(=O)NCC(=O)N[C@@H](CCC(=O)O)C(N)=O)[C@@H](C)O)NC(=O)[C@H](CCCNC(=N)N)NC(=O)[C@H](Cc2c[nH]cn2)NC(=O)[C@H](CCC(=O)O)NC(=O)CNC(=O)[C@H](Cc2c[nH]c3ccccc23)NC(=O)[C@H](CC(=O)O)NC(=O)[C@H](CCC(N)=O)NC(=O)[C@H](Cc2c[nH]c3ccccc23)NC1=O
B8: Compound 30 (peptide)
peptide: Ac-EGEICIWQDWGEHRCT-NH2
modifications: disulfide 5-15
SMILES: CC[C@H](C)[C@@H]1NC(=O)[C@@H](NC(=O)[C@@H](NC(=O)[C@H](CCC(=O)O)NC(=O)CNC(=O)[C@H](CCC(=O)O)NC(C)=O)[C@@H](C)CC)CSSC[C@@H](C(=O)N[C@H](C(N)=O)[C@@H](C)O)NC(=O)[C@H](CCCNC(=N)N)NC(=O)[C@H](Cc2c[nH]cn2)NC(=O)[C@H](CCC(=O)O)NC(=O)CNC(=O)[C@H](Cc2c[nH]c3ccccc23)NC(=O)[C@H](CC(=O)O)NC(=O)[C@H](CCC(N)=O)NC(=O)[C@H](Cc2c[nH]c3ccccc23)NC1=O
B9: Compound 31 (peptide)
peptide: Ac-ESEICIWQDWGEHRCT-NH2
modifications: disulfide 5-15
SMILES: CC[C@H](C)[C@@H]1NC(=O)[C@@H](NC(=O)[C@@H](NC(=O)[C@H](CCC(=O)O)NC(=O)[C@H](CO)NC(=O)[C@H](CCC(=O)O)NC(C)=O)[C@@H](C)CC)CSSC[C@@H](C(=O)N[C@H](C(N)=O)[C@@H](C)O)NC(=O)[C@H](CCCNC(=N)N)NC(=O)[C@H](Cc2c[nH]cn2)NC(=O)[C@H](CCC(=O)O)NC(=O)CNC(=O)[C@H](Cc2c[nH]c3ccccc23)NC(=O)[C@H](CC(=O)O)NC(=O)[C@H](CCC(N)=O)NC(=O)[C@H](Cc2c[nH]c3ccccc23)NC1=O
B10: Compound 25 (peptide)
peptide: Ac-ICIWQDWGEHRCTEA-NH2
modifications: disulfide 2-12
SMILES: CC[C@H](C)[C@H](NC(C)=O)C(=O)N[C@H]1CSSC[C@@H](C(=O)N[C@H](C(=O)N[C@@H](CCC(=O)O)C(=O)N[C@@H](C)C(N)=O)[C@@H](C)O)NC(=O)[C@H](CCCNC(=N)N)NC(=O)[C@H](Cc2c[nH]cn2)NC(=O)[C@H](CCC(=O)O)NC(=O)CNC(=O)[C@H](Cc2c[nH]c3ccccc23)NC(=O)[C@H](CC(=O)O)NC(=O)[C@H](CCC(N)=O)NC(=O)[C@H](Cc2c[nH]c3ccccc23)NC(=O)[C@H]([C@@H](C)CC)NC1=O
B11: Compound 17 (peptide)
peptide: Ac-ICIWQDWGDHRCT-NH2
modifications: disulfide 2-12
SMILES: CC[C@H](C)[C@H](NC(C)=O)C(=O)N[C@H]1CSSC[C@@H](C(=O)N[C@H](C(N)=O)[C@@H](C)O)NC(=O)[C@H](CCCNC(=N)N)NC(=O)[C@H](Cc2c[nH]cn2)NC(=O)[C@H](CC(=O)O)NC(=O)CNC(=O)[C@H](Cc2c[nH]c3ccccc23)NC(=O)[C@H](CC(=O)O)NC(=O)[C@H](CCC(N)=O)NC(=O)[C@H](Cc2c[nH]c3ccccc23)NC(=O)[C@H]([C@@H](C)CC)NC1=O
B12: Compound 27 (peptide)
peptide: Ac-ICIWQDWGEHRCEGE-NH2
modifications: disulfide 2-12
SMILES: CC[C@H](C)[C@H](NC(C)=O)C(=O)N[C@H]1CSSC[C@@H](C(=O)N[C@@H](CCC(=O)O)C(=O)NCC(=O)N[C@@H](CCC(=O)O)C(N)=O)NC(=O)[C@H](CCCNC(=N)N)NC(=O)[C@H](Cc2c[nH]cn2)NC(=O)[C@H](CCC(=O)O)NC(=O)CNC(=O)[C@H](Cc2c[nH]c3ccccc23)NC(=O)[C@H](CC(=O)O)NC(=O)[C@H](CCC(N)=O)NC(=O)[C@H](Cc2c[nH]c3ccccc23)NC(=O)[C@H]([C@@H](C)CC)NC1=O
B13: Compound 13 (peptide)
peptide: Ac-ICIWQDWGEHRC[Sar]-NH2
modifications: disulfide 2-12
SMILES: CC[C@H](C)[C@H](NC(C)=O)C(=O)N[C@H]1CSSC[C@@H](C(=O)N(C)CC(N)=O)NC(=O)[C@H](CCCNC(=N)N)NC(=O)[C@H](Cc2c[nH]cn2)NC(=O)[C@H](CCC(=O)O)NC(=O)CNC(=O)[C@H](Cc2c[nH]c3ccccc23)NC(=O)[C@H](CC(=O)O)NC(=O)[C@H](CCC(N)=O)NC(=O)[C@H](Cc2c[nH]c3ccccc23)NC(=O)[C@H]([C@@H](C)CC)NC1=O
B14: Compound 22 (peptide)
peptide: Ac-ICIWQDWGEHRCE-NH2
modifications: disulfide 2-12
SMILES: CC[C@H](C)[C@H](NC(C)=O)C(=O)N[C@H]1CSSC[C@@H](C(=O)N[C@@H](CCC(=O)O)C(N)=O)NC(=O)[C@H](CCCNC(=N)N)NC(=O)[C@H](Cc2c[nH]cn2)NC(=O)[C@H](CCC(=O)O)NC(=O)CNC(=O)[C@H](Cc2c[nH]c3ccccc23)NC(=O)[C@H](CC(=O)O)NC(=O)[C@H](CCC(N)=O)NC(=O)[C@H](Cc2c[nH]c3ccccc23)NC(=O)[C@H]([C@@H](C)CC)NC1=O
B15: Compound 32 (peptide)
peptide: Ac-SEICIWQDWGEHRCTEA-NH2
modifications: disulfide 4-14
SMILES: CC[C@H](C)[C@@H]1NC(=O)[C@@H](NC(=O)[C@@H](NC(=O)[C@H](CCC(=O)O)NC(=O)[C@H](CO)NC(C)=O)[C@@H](C)CC)CSSC[C@@H](C(=O)N[C@H](C(=O)N[C@@H](CCC(=O)O)C(=O)N[C@@H](C)C(N)=O)[C@@H](C)O)NC(=O)[C@H](CCCNC(=N)N)NC(=O)[C@H](Cc2c[nH]cn2)NC(=O)[C@H](CCC(=O)O)NC(=O)CNC(=O)[C@H](Cc2c[nH]c3ccccc23)NC(=O)[C@H](CC(=O)O)NC(=O)[C@H](CCC(N)=O)NC(=O)[C@H](Cc2c[nH]c3ccccc23)NC1=O

Positions of bridges follow the written chain, without caps; N, C: chain ends. Non-standard residues stand in square brackets, D forms with d. Sar = CNCC(=O)O

For this experiment, the target named is Human C3 (Complement tech cat #A113c) (human, UniProt P01024 23-1663). In words: cell-based or functional assay.
Sequence of Human C3 (Complement tech cat #A113c) (P01024 23-1663 limits assumed): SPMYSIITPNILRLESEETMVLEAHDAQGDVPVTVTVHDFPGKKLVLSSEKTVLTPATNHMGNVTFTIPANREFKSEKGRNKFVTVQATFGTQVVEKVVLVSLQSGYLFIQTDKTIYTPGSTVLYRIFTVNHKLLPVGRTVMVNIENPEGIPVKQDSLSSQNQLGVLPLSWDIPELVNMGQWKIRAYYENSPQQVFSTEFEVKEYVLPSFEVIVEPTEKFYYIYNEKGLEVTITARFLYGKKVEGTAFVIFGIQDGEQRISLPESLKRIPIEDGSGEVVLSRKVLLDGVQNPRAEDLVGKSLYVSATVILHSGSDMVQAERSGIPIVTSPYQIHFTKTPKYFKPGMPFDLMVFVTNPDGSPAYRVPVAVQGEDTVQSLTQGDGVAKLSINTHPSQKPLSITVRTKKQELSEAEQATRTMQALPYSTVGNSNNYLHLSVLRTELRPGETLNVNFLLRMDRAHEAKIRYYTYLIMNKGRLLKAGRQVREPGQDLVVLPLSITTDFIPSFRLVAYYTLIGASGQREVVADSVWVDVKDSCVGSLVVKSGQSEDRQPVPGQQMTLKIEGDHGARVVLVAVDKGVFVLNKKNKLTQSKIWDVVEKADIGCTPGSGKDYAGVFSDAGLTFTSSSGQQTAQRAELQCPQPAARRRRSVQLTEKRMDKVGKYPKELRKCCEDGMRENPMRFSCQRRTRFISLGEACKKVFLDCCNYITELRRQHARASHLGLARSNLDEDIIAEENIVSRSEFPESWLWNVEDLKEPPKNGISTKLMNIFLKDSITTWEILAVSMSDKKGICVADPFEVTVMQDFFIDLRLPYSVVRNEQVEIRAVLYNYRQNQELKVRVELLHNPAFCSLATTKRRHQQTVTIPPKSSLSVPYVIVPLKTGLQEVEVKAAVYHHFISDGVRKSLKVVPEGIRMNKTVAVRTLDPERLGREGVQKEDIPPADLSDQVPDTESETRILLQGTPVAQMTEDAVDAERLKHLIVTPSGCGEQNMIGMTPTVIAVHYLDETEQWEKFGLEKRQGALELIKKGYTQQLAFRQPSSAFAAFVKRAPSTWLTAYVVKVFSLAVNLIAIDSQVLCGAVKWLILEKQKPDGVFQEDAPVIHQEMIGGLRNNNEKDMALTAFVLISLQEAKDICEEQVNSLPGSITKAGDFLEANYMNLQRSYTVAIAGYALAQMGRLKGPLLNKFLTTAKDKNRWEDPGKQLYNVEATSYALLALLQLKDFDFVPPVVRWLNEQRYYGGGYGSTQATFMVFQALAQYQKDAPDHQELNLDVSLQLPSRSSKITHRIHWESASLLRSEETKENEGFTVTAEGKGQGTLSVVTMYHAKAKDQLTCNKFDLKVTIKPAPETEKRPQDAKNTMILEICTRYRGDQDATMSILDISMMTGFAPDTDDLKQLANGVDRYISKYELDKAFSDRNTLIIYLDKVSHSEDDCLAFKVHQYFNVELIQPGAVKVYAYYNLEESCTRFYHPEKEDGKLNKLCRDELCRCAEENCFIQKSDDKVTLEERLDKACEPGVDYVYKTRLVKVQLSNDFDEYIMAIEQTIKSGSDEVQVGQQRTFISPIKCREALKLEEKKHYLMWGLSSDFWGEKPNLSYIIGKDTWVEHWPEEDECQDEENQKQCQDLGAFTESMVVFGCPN
With B1, the “inhibition of hemolysis IC50” value was below 100 nM.
For B2, the “inhibition of hemolysis IC50” value is below 100 nM.
B3: the “inhibition of hemolysis IC50” value is below 100 nM.
Take B4: the “inhibition of hemolysis IC50” value was below 100 nM.
As for B5, the “inhibition of hemolysis IC50” value was below 100 nM.
B6: the “inhibition of hemolysis IC50” value is below 100 nM.
With B7, the “inhibition of hemolysis IC50” value was below 250 nM.
Turning to B8, the “inhibition of hemolysis IC50” value was below 100 nM.
Consider B9, for which the “inhibition of hemolysis IC50” value is below 100 nM.
With B10, the “inhibition of hemolysis IC50” value is below 100 nM.
With B11 the figure was below 100 nM.
As for B12, the “inhibition of hemolysis IC50” value was below 100 nM.
As for B13, the “inhibition of hemolysis IC50” value was below 100 nM.
With B14 the figure was below 100 nM.
Consider B15, for which the “inhibition of hemolysis IC50” value was below 100 nM.
